# Experimental data taken from article PMC9482650, “Quantitative fragmentomics allow affinity mapping of interactomes” (Nature Communications, 2022).
# T1: HTRA4, P83105
# T1 sequence (P83105 378-476, limits assumed, looked up): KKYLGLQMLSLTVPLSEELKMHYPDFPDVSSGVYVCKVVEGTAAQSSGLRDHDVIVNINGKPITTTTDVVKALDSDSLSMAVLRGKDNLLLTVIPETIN
# T2: SNTG2, Q9NY99
# T2 sequence (Q9NY99 68-166, limits assumed, looked up): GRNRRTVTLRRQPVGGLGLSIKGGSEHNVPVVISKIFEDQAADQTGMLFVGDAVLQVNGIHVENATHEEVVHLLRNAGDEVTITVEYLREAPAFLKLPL
# T3: DLG3_2, Q92796
# T3 sequence (Q92796 221-321, limits assumed, looked up): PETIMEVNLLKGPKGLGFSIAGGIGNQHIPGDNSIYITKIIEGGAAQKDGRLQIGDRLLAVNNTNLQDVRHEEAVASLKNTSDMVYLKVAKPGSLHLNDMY
# T4: PDZRN3_1, Q9UPQ7
# T4 sequence (Q9UPQ7 244-349, limits assumed, looked up): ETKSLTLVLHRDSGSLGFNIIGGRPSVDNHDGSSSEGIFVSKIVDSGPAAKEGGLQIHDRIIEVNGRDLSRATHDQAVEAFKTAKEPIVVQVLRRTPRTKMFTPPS
# T5: SNTG1, Q9NSN8
# T5 sequence (Q9NSN8 52-150, limits assumed, looked up): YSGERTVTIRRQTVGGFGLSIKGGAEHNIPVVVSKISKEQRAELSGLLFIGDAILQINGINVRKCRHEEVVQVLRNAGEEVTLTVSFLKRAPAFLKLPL
# T6: PARD3B_1, Q8TEW8
# T6 sequence (Q8TEW8 196-299, limits assumed, looked up): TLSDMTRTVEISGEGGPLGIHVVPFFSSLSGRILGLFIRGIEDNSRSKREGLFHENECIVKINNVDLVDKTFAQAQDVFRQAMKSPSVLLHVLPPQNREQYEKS
# T7: RAPGEF6, Q8TEU7
# T7 sequence (Q8TEU7 525-625, limits assumed, looked up): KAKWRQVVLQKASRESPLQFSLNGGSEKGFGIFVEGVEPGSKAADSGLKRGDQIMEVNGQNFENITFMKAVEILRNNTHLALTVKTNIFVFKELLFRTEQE
# T8: LIN7A, O14910
# T8 sequence (O14910 103-200, limits assumed, looked up): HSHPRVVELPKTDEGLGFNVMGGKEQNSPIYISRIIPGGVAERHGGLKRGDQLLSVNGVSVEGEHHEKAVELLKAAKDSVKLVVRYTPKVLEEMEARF
# T9: NHERF3_4, Q5T2W1
# T9 sequence (Q5T2W1 373-468, limits assumed, looked up): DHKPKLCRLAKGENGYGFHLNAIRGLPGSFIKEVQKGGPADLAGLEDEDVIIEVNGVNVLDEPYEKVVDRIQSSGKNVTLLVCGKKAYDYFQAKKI
# T10: MPP7, Q5T2T1
# T10 sequence (Q5T2T1 134-230, limits assumed, looked up): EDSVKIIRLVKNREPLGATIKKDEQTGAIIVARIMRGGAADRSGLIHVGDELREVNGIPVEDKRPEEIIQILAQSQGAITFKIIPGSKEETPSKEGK
# B1: PDLIM4, P50479;P50479-2 (peptide)
# chain: PSASCAVTAA
# B2: LNX2, Q8N448 (peptide)
# chain: TVICWPGSLV
# B3: SARS-CoV2-E, P0DTC4 (peptide)
# chain: NLNSSRVPDLLV
# B4: GRIN1, Q05586;Q05586-2 (peptide)
# chain: LSDPSVSTVV
# Tests used:
# Assay in all cases: holdup assay
# Design in all cases: key: below the threshold = too weak to quantify, mostly under pKd 3.1 to 4
# [1] = molecular target: MAGI2_3, Q86UL8
# MAGI2_3, Q86UL8, sequence (Q86UL8 600-682): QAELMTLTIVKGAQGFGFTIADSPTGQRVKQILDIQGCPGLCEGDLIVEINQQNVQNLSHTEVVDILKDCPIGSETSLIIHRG
# [2] = molecular target: HTRA1, Q92743
# HTRA1, Q92743, sequence (Q92743 360-477): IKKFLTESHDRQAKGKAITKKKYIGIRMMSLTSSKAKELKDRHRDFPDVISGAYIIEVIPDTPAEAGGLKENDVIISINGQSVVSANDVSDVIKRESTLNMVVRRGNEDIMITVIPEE
# [3] = molecular target: FRMPD4, Q14CM0
# FRMPD4, Q14CM0, sequence (Q14CM0 67-160): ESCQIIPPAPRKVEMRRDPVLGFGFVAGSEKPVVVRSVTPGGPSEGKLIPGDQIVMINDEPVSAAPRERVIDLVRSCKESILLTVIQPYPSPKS
# [4] = molecular target: T1, HTRA4, P83105
# [5] = molecular target: NHERF2_2, Q15599
# NHERF2_2, Q15599, sequence (Q15599 142-238): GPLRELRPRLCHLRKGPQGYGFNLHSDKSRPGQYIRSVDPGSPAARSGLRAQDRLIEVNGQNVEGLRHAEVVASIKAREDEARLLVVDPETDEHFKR
# [6] = molecular target: T2, SNTG2, Q9NY99
# [7] = molecular target: SCRIB_3, Q14160
# SCRIB_3, Q14160, sequence (Q14160 999-1103): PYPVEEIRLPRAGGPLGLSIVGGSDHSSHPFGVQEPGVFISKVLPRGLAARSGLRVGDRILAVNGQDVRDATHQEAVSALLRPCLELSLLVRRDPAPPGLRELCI
# [8] = molecular target: MAGI1_2, Q96QZ7
# MAGI1_2, Q96QZ7, sequence (Q96QZ7 456-580): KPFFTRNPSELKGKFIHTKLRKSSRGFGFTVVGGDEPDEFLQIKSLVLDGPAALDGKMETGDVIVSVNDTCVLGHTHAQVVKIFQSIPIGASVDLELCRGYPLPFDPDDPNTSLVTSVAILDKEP
# [9] = molecular target: MAGI2_5, Q86UL8
# MAGI2_5, Q86UL8, sequence (Q86UL8 915-1017): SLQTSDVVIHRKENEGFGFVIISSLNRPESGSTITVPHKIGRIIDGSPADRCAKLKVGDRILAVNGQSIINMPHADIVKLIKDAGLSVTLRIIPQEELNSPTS
# [10] = molecular target: T3, DLG3_2, Q92796
# [11] = molecular target: T4, PDZRN3_1, Q9UPQ7
# [12] = molecular target: LNX1_1, Q8TBB1
# LNX1_1, Q8TBB1, sequence (Q8TBB1 261-371): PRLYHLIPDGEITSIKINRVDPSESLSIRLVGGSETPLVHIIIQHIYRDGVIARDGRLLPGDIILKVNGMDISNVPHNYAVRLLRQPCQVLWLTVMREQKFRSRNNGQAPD
# [13] = molecular target: T5, SNTG1, Q9NSN8
# [14] = molecular target: LIMK2, P53671
# LIMK2, P53671, sequence (P53671 143-248): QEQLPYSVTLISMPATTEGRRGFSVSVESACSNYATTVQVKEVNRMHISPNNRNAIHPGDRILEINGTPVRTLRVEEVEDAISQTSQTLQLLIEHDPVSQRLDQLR
# [15] = molecular target: IL16_3, Q14005
# IL16_3, Q14005, sequence (Q14005 1107-1207): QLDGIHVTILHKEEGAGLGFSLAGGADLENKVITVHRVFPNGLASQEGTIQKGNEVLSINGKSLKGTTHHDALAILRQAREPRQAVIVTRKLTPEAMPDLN
# [16] = molecular target: T6, PARD3B_1, Q8TEW8
# [17] = molecular target: DLG4_1, P78352
# DLG4_1, P78352, sequence (P78352 62-152): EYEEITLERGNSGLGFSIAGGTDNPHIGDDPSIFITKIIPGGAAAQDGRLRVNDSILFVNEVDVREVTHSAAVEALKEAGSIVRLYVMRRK
# [18] = molecular target: Inadl_9, Q8NI35
# Inadl_9, Q8NI35, sequence (Q8NI35 1530-1615): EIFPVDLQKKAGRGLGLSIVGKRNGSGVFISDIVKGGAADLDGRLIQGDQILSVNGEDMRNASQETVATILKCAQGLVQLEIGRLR
# [19] = molecular target: T7, RAPGEF6, Q8TEU7
# [20] = molecular target: T8, LIN7A, O14910
# [21] = molecular target: NHERF4_2, Q86UT5
# NHERF4_2, Q86UT5, sequence (Q86UT5 220-308): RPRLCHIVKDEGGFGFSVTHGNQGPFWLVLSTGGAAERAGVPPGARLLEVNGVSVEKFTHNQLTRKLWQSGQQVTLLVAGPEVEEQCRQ
# [22] = molecular target: GRIP2_7, Q9C0E4
# GRIP2_7, Q9C0E4, sequence (Q9C0E4 934-1023): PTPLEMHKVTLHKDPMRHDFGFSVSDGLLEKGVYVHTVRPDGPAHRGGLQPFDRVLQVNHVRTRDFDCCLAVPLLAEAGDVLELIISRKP
# [23] = molecular target: Inadl_3, Q8NI35
# Inadl_3, Q8NI35, sequence (Q8NI35 359-469): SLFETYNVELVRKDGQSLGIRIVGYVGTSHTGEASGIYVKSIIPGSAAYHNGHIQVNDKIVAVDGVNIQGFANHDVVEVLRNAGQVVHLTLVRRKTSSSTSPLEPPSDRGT
# [24] = molecular target: MAST1, Q9Y2H9
# MAST1, Q9Y2H9, sequence (Q9Y2H9 962-1065): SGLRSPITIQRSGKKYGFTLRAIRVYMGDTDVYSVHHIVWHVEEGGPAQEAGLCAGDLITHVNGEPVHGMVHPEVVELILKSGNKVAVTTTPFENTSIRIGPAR
# [25] = molecular target: PICK1, Q9NRD5
# PICK1, Q9NRD5, sequence (Q9NRD5 17-115): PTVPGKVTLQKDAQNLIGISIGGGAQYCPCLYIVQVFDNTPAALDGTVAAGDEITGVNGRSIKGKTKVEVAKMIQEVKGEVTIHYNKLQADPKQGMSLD
# [26] = molecular target: T9, NHERF3_4, Q5T2W1
# [27] = molecular target: T10, MPP7, Q5T2T1
# [28] = plain residues with an end cap or a label only (N-terminal biotin on a linker: ahx)
# [29] = plain residues with an end cap or a label only (N-terminal biotin on a linker: none)
binder,measurement,setting,value
B1,pKd,[1]; [28],below the threshold
same,pKd,[2]; [28],below the threshold
same,pKd,[3]; [28],below the threshold
same,pKd,[4]; [28],below the threshold
same,pKd,[5]; [28],below the threshold
same,pKd,[6]; [28],below the threshold
same,pKd,[7]; [28],below the threshold
same,pKd,[8]; [28],below the threshold
same,pKd,[9]; [28],below the threshold
same,pKd,[10]; [28],below the threshold
same,pKd,[11]; [28],below the threshold
same,pKd,[12]; [28],below the threshold
same,pKd,[13]; [28],below the threshold
same,pKd,[14]; [28],below the threshold
same,pKd,[15]; [28],below the threshold
same,pKd,[16]; [28],below the threshold
same,pKd,[17]; [28],below the threshold
same,pKd,[18]; [28],below the threshold
same,pKd,[19]; [28],below the threshold
same,pKd,[20]; [28],below the threshold
same,pKd,[21]; [28],below the threshold
same,pKd,[22]; [28],below the threshold
same,pKd,[23]; [28],below the threshold
same,pKd,[24]; [28],below the threshold
same,pKd,[25]; [28],below the threshold
same,pKd,[26]; [28],below the threshold
same,pKd,[27]; [28],below the threshold
B2,pKd,[1]; [28],3.66
same,pKd,[2]; [28],4.94
same,pKd,[3]; [28],below the threshold
same,pKd,[4]; [28],4.45
same,pKd,[5]; [28],below the threshold
same,pKd,[6]; [28],3.73
same,pKd,[7]; [28],4.11
same,pKd,[8]; [28],3.85
same,pKd,[9]; [28],4.35
same,pKd,[10]; [28],4.07
same,pKd,[11]; [28],4.17
same,pKd,[12]; [28],4.79
same,pKd,[13]; [28],3.7
same,pKd,[14]; [28],below the threshold
same,pKd,[15]; [28],below the threshold
same,pKd,[16]; [28],3.99
same,pKd,[17]; [28],4.44
same,pKd,[18]; [28],3.99
same,pKd,[19]; [28],below the threshold
same,pKd,[20]; [28],4.35
same,pKd,[21]; [28],below the threshold
same,pKd,[22]; [28],below the threshold
same,pKd,[23]; [28],4.19
same,pKd,[24]; [28],3.88
same,pKd,[25]; [28],3.75
same,pKd,[26]; [28],below the threshold
same,pKd,[27]; [28],below the threshold
B3,pKd,[1]; [29],below the threshold
same,pKd,[2]; [29],4.32
same,pKd,[3]; [29],3.48
same,pKd,[4]; [29],below the threshold
same,pKd,[5]; [29],below the threshold
same,pKd,[6]; [29],below the threshold
same,pKd,[7]; [29],below the threshold
same,pKd,[8]; [29],below the threshold
same,pKd,[9]; [29],below the threshold
same,pKd,[10]; [29],below the threshold
same,pKd,[11]; [29],below the threshold
same,pKd,[12]; [29],below the threshold
same,pKd,[13]; [29],below the threshold
same,pKd,[14]; [29],below the threshold
same,pKd,[15]; [29],below the threshold
same,pKd,[16]; [29],below the threshold
same,pKd,[17]; [29],below the threshold
same,pKd,[18]; [29],below the threshold
same,pKd,[19]; [29],below the threshold
same,pKd,[20]; [29],below the threshold
same,pKd,[21]; [29],below the threshold
same,pKd,[22]; [29],below the threshold
same,pKd,[23]; [29],3.47
same,pKd,[24]; [29],below the threshold
same,pKd,[25]; [29],3.67
same,pKd,[26]; [29],below the threshold
same,pKd,[27]; [29],below the threshold
B4,pKd,[1]; [28],below the threshold
same,pKd,[2]; [28],4.32
same,pKd,[3]; [28],below the threshold
same,pKd,[4]; [28],below the threshold
same,pKd,[5]; [28],below the threshold
same,pKd,[6]; [28],below the threshold
same,pKd,[7]; [28],below the threshold
same,pKd,[8]; [28],below the threshold
same,pKd,[9]; [28],4.36
same,pKd,[10]; [28],4.58
same,pKd,[11]; [28],below the threshold
same,pKd,[12]; [28],4.17
same,pKd,[13]; [28],below the threshold
same,pKd,[14]; [28],below the threshold
same,pKd,[15]; [28],below the threshold
same,pKd,[16]; [28],below the threshold
same,pKd,[17]; [28],4.1
same,pKd,[18]; [28],below the threshold
same,pKd,[19]; [28],below the threshold
same,pKd,[20]; [28],below the threshold
same,pKd,[21]; [28],below the threshold
same,pKd,[22]; [28],below the threshold
same,pKd,[23]; [28],below the threshold
same,pKd,[24]; [28],below the threshold
same,pKd,[25]; [28],below the threshold
same,pKd,[26]; [28],below the threshold
same,pKd,[27]; [28],below the threshold
